In the supplement of paper PMC12042874 one finds amyloid nucleation score data, which are given here for 97 substances.

± gives the uncertainty stated by the source.

The data set in a line: amyloid nucleation score (Sup35N fusion, yeast selection) (log enrichment); library NNK3; higher = more nucleation; inactive = no reads after selection. The method, boiled down:
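Using DiMSum, nucleation scores were taken as the log enrichment of output over input reads, centred on the mode score of non-aggregating sequences. The input and output reads came from Illumina sequencing of plasmid inserts, with sequences under 100 input reads excluded. The yeast were psi-negative, expressed Sup35N fused to peptides of 20 random codons, were induced with 100 μM copper sulfate for 24 hours, and were grown 7 days at 30°C on medium lacking adenine and uracil.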
As to EMLGHHVGSLINRRVITVLR, the amyloid nucleation score result was “inactive”.

As for ISRDGVRCEVWMWPWPREPA, the amyloid nucleation score entry was “inactive”.

With RMFKFGTCYKSVGPTKRAEC, the amyloid nucleation score entry is “inactive”.

Consider WEFLCFFAT, for which the amyloid nucleation score entry was “inactive”.

With LDLSSYVHSTLEPGQWKRSR, the amyloid nucleation score result was “inactive”.

Substance PLSVAFYGVTIR returned an amyloid nucleation score of 0.056 ± 0.19.

Consider FLDSSVW, for which the amyloid nucleation score result was “inactive”.

In turn, GFSYVVNYVFFTDVKNTAAL had an amyloid nucleation score of 2.17 ± 0.076.

On to TIYVLCGRTIRWFVLNPLQE, for which the amyloid nucleation score entry was “inactive”.

Take LLAWFHNCRLRLI: the amyloid nucleation score entry was “inactive”.

For the substance LLVVY, the amyloid nucleation score result was “inactive”.

MNVGAIGKSSFMY: the amyloid nucleation score result is “inactive”.

With ALVLNLDRVWVSLTDGPWSD, the amyloid nucleation score entry was “inactive”.

As for CISSGGMLLNSFGSLWA, the amyloid nucleation score entry was “inactive”.

As to DFRGDLFELMMIYGRGMVLT, the amyloid nucleation score result is “inactive”.

In the case of DSGSHNDCNGCSNY, the amyloid nucleation score result was “inactive”.

For RDSQRSVRVTAIDG, the amyloid nucleation score result is “inactive”.

For DDLIGSIFKFLVLSRGKT, the amyloid nucleation score entry was “inactive”.

GYLYDFLPCP returned an amyloid nucleation score of -0.497 ± 0.7.

On to CNIEGYNETNVCECWNMELL, for which the amyloid nucleation score result was “inactive”.

LLQICGVYYYPIVSYSPDDF: the amyloid nucleation score entry is “inactive”.

With IFEVFSVNKV, the amyloid nucleation score result is “inactive”.

As to HRIVTPPNDLWGVWASTV, the amyloid nucleation score entry is “inactive”.

In turn, VQPVGSSKGVRGVE displayed an amyloid nucleation score of 0.983 ± 0.2.

Regarding RFGAGILRSSNQDSGFRVTG, the amyloid nucleation score entry was “inactive”.

As for CHLYLPSQTSQH, the amyloid nucleation score entry was “inactive”.

For FYKVYSVRLEHFCKCGIECN, the amyloid nucleation score entry was “inactive”.

Consider VKWWGAES, for which the amyloid nucleation score result is “inactive”.

On to IVSTWG, for which the amyloid nucleation score entry was “inactive”.

Take FVVYL: the amyloid nucleation score entry is “inactive”.

Consider HCKRYNVERKNFCDLHNQRY, for which the amyloid nucleation score entry is “inactive”.

As to MDIRERRRFFSNIRRVRYLK, the amyloid nucleation score entry was “inactive”.

For YSFVAVSSFDREHSRIFGVS, the amyloid nucleation score result is “inactive”.

DGNGLNTRGNLTSGIFHRQY: the amyloid nucleation score result is “inactive”.

KTCIVCMLHL: the amyloid nucleation score is 3.32 ± 0.068.

KIQSMISTITMVFTKLLSHL registered an amyloid nucleation score of -0.546 ± 0.7.

On to SNRGYTKRYF, for which the amyloid nucleation score entry is “inactive”.

For the substance VSRVTRLNKFISVVHDSCEV, the amyloid nucleation score result was “inactive”.

Take PVVTMLYLTSIVSSSGHGSY: the amyloid nucleation score came out at 0.898 ± 0.11.

In the case of WVPLDHVGGA, the amyloid nucleation score result is “inactive”.

RDIISMIVGWVLLQYLTTTY showed an amyloid nucleation score of -0.888 ± 1.

In the case of RTSEPKTAHIMNEAIRRC, the amyloid nucleation score entry was “inactive”.

On to IKNEQSARRGASSCGGTADK, for which the amyloid nucleation score result was “inactive”.

Turning to DFGVYNEHHGYLILGIKRDQ, the amyloid nucleation score result is “inactive”.

Turning to RGLRTKVGMSVRNCEYRYVM, the amyloid nucleation score is -0.455 ± 1.1.

For RNEWCFSKPILEYHCRMDVF, the amyloid nucleation score entry is “inactive”.

Regarding RHEVRRKKSQ, the amyloid nucleation score result is “inactive”.

The substance LQRYRPADMRVGASSSGNTK showed an amyloid nucleation score of 0.121 ± 1.

As to IDTWFISFRCMFSGNYMYFL, the amyloid nucleation score result was “inactive”.

As for NYMYGLRGSRLQFGMFRFGG, the amyloid nucleation score entry was “inactive”.

In the case of TDPFLTCK, the amyloid nucleation score result is “inactive”.

MRARLFNRITYIGNECNVLS: the amyloid nucleation score entry is “inactive”.

LGFFCVIFVS: the amyloid nucleation score entry is “inactive”.

As to WRNENLPQSGRSMLVIFLLV, the amyloid nucleation score result was “inactive”.

Consider HFITCELGFGDKGSIFFIAG, for which the amyloid nucleation score entry was “inactive”.

On to GSPFYIFRVINLYT, for which the amyloid nucleation score is 2.93 ± 0.049.

The substance SLWIIERCILDHQYGSFRRQ yielded an amyloid nucleation score of 1.65 ± 0.1.

As to VGRSEIYPACPLHSFKMDKF, the amyloid nucleation score result is “inactive”.

Consider QCVRSMLEELRIGYKVHRQS, for which the amyloid nucleation score entry was “inactive”.

SNCNPEWQLLIMIDCYNYAL: the amyloid nucleation score entry was “inactive”.

On to YKLICMSSRWTFLSSRQGEF, for which the amyloid nucleation score result was “inactive”.

As for FDMFVLGMGCGILQYLICFK, the amyloid nucleation score result is “inactive”.

For the substance VRFTHKCSLG, the amyloid nucleation score entry was “inactive”.

As for IHYRANRCRRYCAFIYKAN, the amyloid nucleation score result was “inactive”.

In the case of NNEYQRKNLWFKGKVWLCMY, the amyloid nucleation score result is “inactive”.

Regarding GTLISEVCIFQ, the amyloid nucleation score entry was “inactive”.

MLDFICAVFSVKNWVGICFV: the amyloid nucleation score entry was “inactive”.

Take VCADIVLPQMDLPGSSGREK: the amyloid nucleation score result was “inactive”.

For the substance ITGGTPCGITTVWQKGAMG, the amyloid nucleation score result was “inactive”.

On to TGSFIIRISSSRTMLW, for which the amyloid nucleation score entry was “inactive”.

LLKSGYYKGGFVKGAIRFRE: the amyloid nucleation score result was “inactive”.

For the substance CYSKYSS, the amyloid nucleation score result is “inactive”.

For VHTMEEVA, the amyloid nucleation score entry was “inactive”.

On to TLFWMSYWMRPSNIHCCVRM, for which the amyloid nucleation score result is “inactive”.

Regarding ANAFTGIRCVQVRRRCSLDM, the amyloid nucleation score entry was “inactive”.

With ILCCTCYLRDIDMVVGACDG, the amyloid nucleation score was determined as 1.62 ± 0.063.

Turning to KRMSKKALRLVVSYFSPS, the amyloid nucleation score entry was “inactive”.

TSSNRVLVIPVELMIPWRF registered an amyloid nucleation score of -0.299 ± 1.1.

Take SSITRGLHVRKTSVSTLGV: the amyloid nucleation score result is “inactive”.

Regarding TIMAFIIAIRSLDRCQSSGM, the amyloid nucleation score entry is “inactive”.

Turning to SSIGVGSFCSVRCLYDHDTS, the amyloid nucleation score result is “inactive”.

Take QTAFQRL: the amyloid nucleation score entry is “inactive”.

For FVFCLEGTGGVFDFGFGIGI, the amyloid nucleation score result was “inactive”.

Turning to QTAIIANPSVGGWLSNSHVR, the amyloid nucleation score entry is “inactive”.

The substance QSLVPSFDPNLCQVGVLYCC returned an amyloid nucleation score of -0.654 ± 0.84.

In turn, SSSTANYLSIKFSLSLLKYN gave an amyloid nucleation score of 0.905 ± 0.14.

FSKFQTYVSHMVVYGIMSGN: the amyloid nucleation score entry is “inactive”.

The substance NVDVYVGVPAQVGFVILFWT had an amyloid nucleation score of -0.241 ± 0.61.

Turning to IVYWCLVRNLEKLCCSYFTG, the amyloid nucleation score result is “inactive”.

As to VTVEALILNN, the amyloid nucleation score result was “inactive”.

The substance RIVNALTSCDLFSCGSVLRR displayed an amyloid nucleation score of 1.92 ± 0.1.

Take NKGLNL: the amyloid nucleation score result was “inactive”.

In turn, MWSHLVCCNRQPENLYG displayed an amyloid nucleation score of 1.32 ± 0.16.

Regarding VFSGGVRETLNSS, the amyloid nucleation score result was “inactive”.

On to HLWVNRDQWLVVLTEFSRFW, for which the amyloid nucleation score entry is “inactive”.

For VWLSRRIVCFRLLVQLNSA, the amyloid nucleation score entry was “inactive”.

For YGDEASPLSFCIDHEDRVKV, the amyloid nucleation score result is “inactive”.
